Assay results reported in US20150158934A1 (UCL BUSINESS, published 2015).
Substitutions are numbered along the chain they refer to.

B1: L91F10 (VHH)
VHH: EVQLVESGGGLVQPGGSLTLSCVASGFTLDGYAIGWFRQAPGKEVESVSCITGRHGTIYYADSVMGRFTISRDNAKSTVYLQMNSLKPEDTAVYYCAADGFDTPCVAGTDWQYDYWGQGTQVTVSS
notes: Purified by IMAC; tags not written into the chain
B2: L92E7 (VHH)
VHH: EVQLVESGGGLVQPGGSLRLSCAASGNIVSIDAAGWFRQAPGKQREPVATILTGGATNYADSVKGRFTISRDNAKNTVYLQMSSLKPEDTAVYYCYAPMIYYGGRYSDYWGQGTQVTVSS
notes: as for B1
B3: mAb 2G12 (antibody, V domains shown)
VH: EVQLVESGGGLVKAGGSLILSCGVSNFRISAHTMNWVRRVPGGGLEWVASISTSSTYRDYADAVKGRFTVSRDDLEDFVYLQMHKMRVEDTAIYYCARKGSDRLSDNDPFDAWGPGTVVTVSP
VL: DVVMTQSPSTLSASVGDTITITCRASQSIETWLAWYQQKPGKAPKLLIYKASTLKTGVPSRFSGSGSGTEFTLTISGLQFDDFATYHCQHYAGYSATFGQGTRVEIKR
B4: L82B4F (VHH)
VHH: EVQLVESGGGLVQAGGSLRLSCAASGFTSDDYAIGWFRRAPGKEREGVSYISIEDGSTYSADSVKGRFTISSDYAKNTVYLQMNGLKPEDTAVYYCAAAILGDSVRWLQEYDYDYWGQGTQVTVSS
notes: Family member of L81H9; tags not written into the chain
B5: L8Cj3 (VHH)
VHH: EVQLVESGGGLVQAGGFLRLSCELRGSIFNQYAMAWFRQAPGKEREFVAGMGAVPHYGEFVKGRFTISRDNAKSTVYLQMSSLKPEDTAIYFCARSKSTYISYNSNGYDYWGRGTQVTVSS
notes: 207 chosen because J3r is said to carry S82aN against L8Cj3; also called L8CjJ3; L9Cj3
B6: L91B5 (VHH)
VHH: EVQLVESGGGLVQPGGSLRLSCAASGATFDDYAIGWFRQAPGKEREGVSYIGCNDGATYYAGSVKGRFTISCDYAKNTVYLQMNSLKPEDTAVYYCAAAAQWATIRWIHEYDYNIWGQGTQVTVSS
notes: Purified by IMAC
B7: L91H9 (VHH)
VHH: B6 VHH with P14A, A24V, A57S, N114D, I115T
notes: as for B1
B8: L91C2 (VHH)
VHH: EVQLVESGGGLVQPGGSLRLSCAASGFTLDGYAIGWFRQAPGKEREAISCITTAGTIYYADSVKGRVTISRDNAKNTVYLQMNSLKPEDTAVYLCAADGFDTPCVAGTDWGYDYEGQGTQVTVSS
notes: as for B1

Assays:
Assay in all cases: SPR
[1] = target: T1, gp140CN54 (subtype B'/C), gp140 envelope glycoprotein from the HIV-1 group M CRF07-B/C-clade isolate 97CN54 (HIV-1)
T1 construct: also called CN54 gp140/420 (C); CN54 gp140 Env

CA018 gp140/420 (A/G) = target: T2, CA018 gp140/420 (A/G) (HIV-1)
T2 construct: also called gp120 of CA18

[2] = target: T3, gp140UG37 (subtype A), gp140 envelope glycoprotein from the HIV-1 group M A-clade isolate 92UG037 (HIV-1)
T3 construct: also called UG037 gp140/420 (A); gp140-UG037

gp120IIIB (subgroup B) [3] = target: T4, gp120IIIB (subgroup B) (HIV-1, UniProt P04578 33-511)
T4 construct: it is not tied to this reagent; also called IIIB gp120 (B)

gp120IIIB (subgroup B) [4] = target: gp120IIIB (subgroup B) (HIV-1, UniProt P04578 33-511)

| Binder | Kd [1] | koff [1] | kon [1] | Kd (CA018 gp140/420 (A/G)) | koff (CA018 gp140/420 (A/G)) | kon (CA018 gp140/420 (A/G)) | Kd [2] | koff [2] | kon [2] | Kd (gp120IIIB (subgroup B) [3]) | koff (gp120IIIB (subgroup B) [3]) | kon (gp120IIIB (subgroup B) [3]) | Kd (gp120IIIB (subgroup B) [4]) | koff (gp120IIIB (subgroup B) [4]) | kon (gp120IIIB (subgroup B) [4]) |
| --- | --- | --- | --- | --- | --- | --- | --- | --- | --- | --- | --- | --- | --- | --- | --- |
| B1 | 0.0771 nM | 7.12e-07 s⁻¹ | 9230 M⁻¹ s⁻¹ | 1.18 nM | 6.94e-05 s⁻¹ | 58800 M⁻¹ s⁻¹ | 3.98 nM | 0.00012 s⁻¹ | 29300 M⁻¹ s⁻¹ | – | – | – | – | – | – |
| B2 | 4.46 nM | 0.00015 s⁻¹ | 33200 M⁻¹ s⁻¹ | 7 nM | 0.00013 s⁻¹ | 18000 M⁻¹ s⁻¹ | 11.2 nM | 0.00025 s⁻¹ | 22200 M⁻¹ s⁻¹ | 4.42 nM | 0.00077 s⁻¹ | 174000 M⁻¹ s⁻¹ | – | – | – |
| B3 | – | – | – | – | – | – | – | – | – | – | – | – | 1.91 nM | 0.000314 s⁻¹ | 165000 M⁻¹ s⁻¹ |
| B4 | – | – | – | 3500 nM | 0.00298 s⁻¹ | 850 M⁻¹ s⁻¹ | 0.0031 nM | 3.25e-08 s⁻¹ | 10500 M⁻¹ s⁻¹ | 0.0315 nM | 0.000734 s⁻¹ | 2.3e+07 M⁻¹ s⁻¹ | – | – | – |
| B5 | – | – | – | 8.86 nM | 3.98e-05 s⁻¹ | 4490 M⁻¹ s⁻¹ | 0.00702 nM | 5.48e-08 s⁻¹ | 7800 M⁻¹ s⁻¹ | – | – | – | – | – | – |
| B6 | 0.00127 nM | – | – | 15.6 nM | – | – | 0.174 nM | – | – | – | – | – | – | – | – |
| B7 | 0.0625 nM | 1.1e-06 s⁻¹ | 17600 M⁻¹ s⁻¹ | 321 nM | 0.428 s⁻¹ | 1.33e+06 M⁻¹ s⁻¹ | 0.0102 nM | 9.81e-08 s⁻¹ | 9610 M⁻¹ s⁻¹ | 4.11 nM | 0.000711 s⁻¹ | 173000 M⁻¹ s⁻¹ | – | – | – |
| B8 | – | – | – | – | – | – | – | – | – | 2.01 nM | 0.00025 s⁻¹ | 122000 M⁻¹ s⁻¹ | – | – | – |
